From doi:10.1101/2024.08.29.610253, “Liprin-α/RIM complex regulates the dynamic assembly of presynaptic active zones via liquid-liquid phase separation” (bioRxiv, 2024)

Target: the molecule itself
Test: SEC-MALS; Superdex 200 Increase 10/300 GL in TBS (20 mM Tris pH 8.0, 100 mM NaCl, 1 mM EDTA, 1 mM DTT); individual proteins or mixture, up to 500 μM

B1: liprin-α2_CC2 (domain or fragment, human, UniProt O75334 259-542, looked up)
chain: GSIDSTDETSQIVELQELLEKQNYEMAQMKERLAALSSRVGEVEQEAETARKDLIKTEEMNTKYQRDIREAMAQKEDMEERITTLEKRYLSAQRESTSIHDMNDKLENELANKEAILRQMEEKNRQLQERLELAEQKLQQTMRKAETLPEVEAELAQRIAALTKAEERHGNIEERMRHLEGQLEEKNQELQRARQREKMNEEHNKRLSDTVDRLLTESNERLQLHLKERMAALEEKNVLIQESETFRKNLEESLHDKERLAEEIEKLRSELDQLKMRTGSLIEP
notes: liprin-α2, human, GenBank AF034799.1, CC2 region, residues 259-542; Dimeric by SEC-MALS at 500 μM; source: E. coli BL21(DE3), purified (Ni-NTA, SEC)
- stoichiometry N: 2
